Columns and labels:
Flag-PAB1 [1] = target: T1, Flag-PAB1 (yeast, UniProt P04147 1-577); assay: co-IP + AUC; one-step anti-Flag bead purification from yeast crude extract (Tris pH 7.5, 0.15 M KCl, 2 mM MgCl2, 10% glycerol, 4°C), Flag peptide elution, then AU-FDS of the GFP fusion with AU-A230 or AU-A260 (20°C, 15,000 rpm); material migrating at 77S (monosomal translating complex); cycloheximide added to cells; cells on glucose (elongation), or glucose depleted 10 min and glucose added back for 1 min or 0 min …; details: partners not purified
T1 sequence (looked up): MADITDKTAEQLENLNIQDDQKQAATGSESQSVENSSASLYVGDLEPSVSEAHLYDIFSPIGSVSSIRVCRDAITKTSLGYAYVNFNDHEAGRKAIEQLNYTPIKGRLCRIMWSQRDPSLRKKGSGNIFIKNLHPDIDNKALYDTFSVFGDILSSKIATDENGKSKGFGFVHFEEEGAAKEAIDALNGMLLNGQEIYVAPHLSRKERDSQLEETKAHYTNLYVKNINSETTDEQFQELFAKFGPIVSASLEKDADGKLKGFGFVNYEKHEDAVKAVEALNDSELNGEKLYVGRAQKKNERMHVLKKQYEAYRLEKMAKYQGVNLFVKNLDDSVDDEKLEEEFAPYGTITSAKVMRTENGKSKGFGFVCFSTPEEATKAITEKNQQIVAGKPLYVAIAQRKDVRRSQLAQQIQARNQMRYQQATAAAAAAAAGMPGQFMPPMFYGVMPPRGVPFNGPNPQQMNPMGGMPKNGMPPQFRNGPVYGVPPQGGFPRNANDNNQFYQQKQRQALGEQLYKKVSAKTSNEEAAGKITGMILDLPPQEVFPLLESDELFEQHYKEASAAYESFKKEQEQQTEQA

Flag-PAB1 [2] = target: T1, Flag-PAB1; assay: co-IP + AUC; as a1, but material migrating from 90S to 200S (polysomal translating complexes); cells on glucose (elongation), or glucose depleted 10 min and glucose added back for 1 min (initiation); details: partners not purified
eIF4E-Flag [3] = target: T2, eIF4E-Flag (yeast, UniProt P07260 1-213); assay: as above; details: partners not purified
T2 sequence (looked up): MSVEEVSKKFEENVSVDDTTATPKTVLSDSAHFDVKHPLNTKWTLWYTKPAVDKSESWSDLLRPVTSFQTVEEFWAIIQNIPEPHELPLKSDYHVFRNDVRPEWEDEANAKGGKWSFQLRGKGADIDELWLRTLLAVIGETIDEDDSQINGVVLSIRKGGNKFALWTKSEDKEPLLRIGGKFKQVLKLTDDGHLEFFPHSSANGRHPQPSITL

Flag-SBP1 (yeast) = Flag-SBP1 (yeast) (UniProt P10080); assay: co-IP + AUC; one-step anti-Flag bead purification from yeast crude extract (Tris pH 7.5, 0.15 M KCl, 2 mM MgCl2, 10% glycerol, 4°C), Flag peptide elution, then AU-FDS of the GFP fusion with AU-A230 or AU-A260 (20°C, 15,000 rpm); material migrating at 77S (monosomal translating complex); cycloheximide added to cells; cells on glucose (elongation), or glucose depleted 10 min and glucose added back for 1 min or 0 min (initiation)
Chain of Flag-SBP1 (yeast) (P10080 whole entry, the tested form may be a part): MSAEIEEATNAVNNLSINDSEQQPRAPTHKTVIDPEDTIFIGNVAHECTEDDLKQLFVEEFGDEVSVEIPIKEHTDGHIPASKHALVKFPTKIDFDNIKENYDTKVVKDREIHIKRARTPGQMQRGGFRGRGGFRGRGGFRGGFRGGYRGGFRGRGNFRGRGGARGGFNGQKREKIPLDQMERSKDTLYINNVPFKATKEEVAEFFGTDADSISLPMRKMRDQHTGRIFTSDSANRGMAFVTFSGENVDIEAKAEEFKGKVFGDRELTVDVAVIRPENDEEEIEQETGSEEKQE

eIF4E-Flag [4] = target: T2, eIF4E-Flag; assay: co-IP + AUC; one-step anti-Flag bead purification from yeast crude extract (Tris pH 7.5, 0.15 M KCl, 2 mM MgCl2, 10% glycerol, 4°C), Flag peptide elution, then AU-FDS of the GFP fusion with AU-A230 or AU-A260 (20°C, 15,000 rpm); material migrating at 77S (monosomal translating complex); cycloheximide added to cells; cells on glucose (elongation), or glucose depleted 10 min and glucose added back for 1 min or 0 min …; details: partners not purified

B1: SSD1-GFP (natural protein, yeast, UniProt P24276 1-1250, looked up)
chain: MSKNSNVNNNRSQEPNNMFVQTTGGGKNAPKQIHVAHRRSQSELTNLMIEQFTLQKQLEQVQAQQQQLMAQQQQLAQQTGQYLSGNSGSNNHFTPQPPHPHYNSNGNSPGMSAGGSRSRTHSRNNSGYYHNSYDNNNNSNNPGSNSHRKTSSQSSIYGHSRRHSLGLNEAKKAAAEEQAKRISGGEAGVTVKIDSVQADSGSNSTTEQSDFKFPPPPNAHQGHRRATSNLSPPSFKFPPNSHGDNDDEFIATSSTHRRSKTRNNEYSPGINSNWRNQSQQPQQQLSPFRHRGSNSRDYNSFNTLEPPAIFQQGHKHRASNSSVHSFSSQGNNNGGGRKSLFAPYLPQANIPELIQEGRLVAGILRVNKKNRSDAWVSTDGALDADIYICGSKDRNRALEGDLVAVELLVVDDVWESKKEKEEKKRRKDASMQHDLIPLNSSDDYHNDASVTAATSNNFLSSPSSSDSLSKDDLSVRRKRSSTINNDSDSLSSPTKSGVRRRSSLKQRPTQKKNDDVEVEGQSLLLVEEEEINDKYKPLYAGHVVAVLDRIPGQLFSGTLGLLRPSQQANSDNNKPPQSPKIAWFKPTDKKVPLIAIPTELAPKDFVENADKYSEKLFVASIKRWPITSLHPFGILVSELGDIHDPDTEIDSILRDNNFLSNEYLDQKNPQKEKPSFQPLPLTAESLEYRRNFTDTNEYNIFAISELGWVSEFALHVRNNGNGTLELGCHVVDVTSHIEEGSSVDRRARKRSSAVFMPQKLVNLLPQSFNDELSLAPGKESATLSVVYTLDSSTLRIKSTWVGESTISPSNILSLEQLDEKLSTGSPTSYLSTVQEIARSFYARRINDPEATLLPTLSLLESLDDEKVKVDLNILDRTLGFVVINEIKRKVNSTVAEKIYTKLGDLALLRRQMQPIATKMASFRKKIQNFGYNFDTNTADELIKGVLKIKDDDVRVGIEILLFKTMPRARYFIAGKVDPDQYGHYALNLPIYTHFTAPMRRYADHVVHRQLKAVIHDTPYTEDMEALKITSEYCNFKKDCAYQAQEQAIHLLLCKTINDMGNTTGQLLTMATVLQVYESSFDVFIPEFGIEKRVHGDQLPLIKAEFDGTNRVLELHWQPGVDSATFIPADEKNPKSYRNSIKNKFRSTAAEIANIELDKEAESEPLISDPLSKELSDLHLTVPNLRLPSASDNKQNALEKFISTTETRIENDNYIQEIHELQKIPILLRAEVGMALPCLTVRALNPFMKRV
notes: source: yeast strain carrying the GFP fusion, in crude extract
relative level in the 77S monosomal translating complex, mRNA set at 100 (elongation) (Flag-PAB1 [1]): 1 per 100 mRNA
relative level in the 77S monosomal translating complex, mRNA set at 100 (initiation) (Flag-PAB1 [1]): 1.8 per 100 mRNA

B2: eIF4G1-GFP (natural protein, yeast, UniProt P39935 1-952, looked up)
chain: MTDETAHPTQSASKQESAALKQTGDDQQESQQQRGYTNYNNGSNYTQKKPYNSNRPHQQRGGKFGPNRYNNRGNYNGGGSFRGGHMGANSSNVPWTGYYNNYPVYYQPQQMAAAGSAPANPIPVEEKSPVPTKIEITTKSGEHLDLKEQHKAKLQSQERSTVSPQPESKLKETSDSTSTSTPTPTPSTNDSKASSEENISEAEKTRRNFIEQVKLRKAALEKKRKEQLEGSSGNNNIPMKTTPENVEEKGSDKPEVTEKTKPAEEKSAEPEVKQETPAEEGEQGEKGQIKEESTPKVLTFAERLKLKKQQKEREEKTEGKENKEVPVQEETKSAIESAPVPPSEQVKEETEVAETEQSNIDESATTPAIPTKSDEAEAEVEAEAGDAGTKIGLEAEIETTTDETDDGTNTVSHILNVLKDATPIEDVFSFNYPEGIEGPDIKYKKEHVKYTYGPTFLLQFKDKLNVKADAEWVQSTASKIVIPPGMGRGNRSRDSGRFGNNSSRGHDFRNTSVRNMDDRANSRTSSKRRSKRMNDDRRSNRSYTSRRDRERGSYRNEEKREDDKPKEEVAPLVPSANRWVPKFKSKKTEKKLAPDGKTELLDKDEVERKMKSLLNKLTLEMFDAISSEILAIANISVWETNGETLKAVIEQIFLKACDEPHWSSMYAQLCGKVVKELNPDITDETNEGKTGPKLVLHYLVARCHAEFDKGWTDKLPTNEDGTPLEPEMMSEEYYAAASAKRRGLGLVRFIGFLYRLNLLTGKMMFECFRRLMKDLTDSPSEETLESVVELLNTVGEQFETDSFRTGQATLEGSQLLDSLFGILDNIIQTAKISSRIKFKLIDIKELRHDKNWNSDKKDNGPKTIQQIHEEEERQRQLKNNSRSNSRRTNNSSNRHSFRRDAPPASKDSFITTRTYSQRNSQRAPPPKEEPAAPTSTATNMFSALMGESDDEE
notes: eIF4G1 of yeast, GFP fusion; the printed name puts GFP after the protein; also called eIFG1; source: yeast strain carrying the GFP fusion at the chromosomal location, in crude extract
relative level in the polysomal translating complexes (90S to 200S), mRNA set at 100 (elongation) (Flag-PAB1 [2]): 18 per 100 mRNA
relative level in the polysomal translating complexes (90S to 200S), mRNA set at 100 (initiation) (Flag-PAB1 [2]): 26 per 100 mRNA
relative level in the polysomal translating complexes (90S to 200S), mRNA set at 100 (elongation) (eIF4E-Flag [3]): 75 per 100 mRNA
relative level in the polysomal translating complexes (90S to 200S), mRNA set at 100 (initiation) (eIF4E-Flag [3]): 79 per 100 mRNA
relative level in the 77S monosomal translating complex, mRNA set at 100 (elongation) (Flag-SBP1 (yeast)): < 0.3 per 100 mRNA
relative level in the 77S monosomal translating complex, mRNA set at 100 (elongation) (Flag-PAB1 [1]): 5.6 per 100 mRNA
relative level in the 77S monosomal translating complex, mRNA set at 100 (initiation) (Flag-PAB1 [1]): 8.7 per 100 mRNA
relative level in the 77S monosomal translating complex, mRNA set at 100 (elongation) (eIF4E-Flag [4]): 19 per 100 mRNA
relative level in the 77S monosomal translating complex, mRNA set at 100 (initiation) (eIF4E-Flag [4]): 20 per 100 mRNA

B3: PAB1-GFP (natural protein, yeast, UniProt P04147 1-577, looked up)
chain: MADITDKTAEQLENLNIQDDQKQAATGSESQSVENSSASLYVGDLEPSVSEAHLYDIFSPIGSVSSIRVCRDAITKTSLGYAYVNFNDHEAGRKAIEQLNYTPIKGRLCRIMWSQRDPSLRKKGSGNIFIKNLHPDIDNKALYDTFSVFGDILSSKIATDENGKSKGFGFVHFEEEGAAKEAIDALNGMLLNGQEIYVAPHLSRKERDSQLEETKAHYTNLYVKNINSETTDEQFQELFAKFGPIVSASLEKDADGKLKGFGFVNYEKHEDAVKAVEALNDSELNGEKLYVGRAQKKNERMHVLKKQYEAYRLEKMAKYQGVNLFVKNLDDSVDDEKLEEEFAPYGTITSAKVMRTENGKSKGFGFVCFSTPEEATKAITEKNQQIVAGKPLYVAIAQRKDVRRSQLAQQIQARNQMRYQQATAAAAAAAAGMPGQFMPPMFYGVMPPRGVPFNGPNPQQMNPMGGMPKNGMPPQFRNGPVYGVPPQGGFPRNANDNNQFYQQKQRQALGEQLYKKVSAKTSNEEAAGKITGMILDLPPQEVFPLLESDELFEQHYKEASAAYESFKKEQEQQTEQA
notes: the printed name puts GFP after the protein; source: yeast strain carrying the GFP fusion, in crude extract
relative level in the polysomal translating complexes (90S to 200S), mRNA set at 100 (elongation) (eIF4E-Flag [3]): 74 per 100 mRNA
relative level in the polysomal translating complexes (90S to 200S), mRNA set at 100 (initiation) (eIF4E-Flag [3]): 59 per 100 mRNA
relative level in the 77S monosomal translating complex, mRNA set at 100 (elongation) (Flag-SBP1 (yeast)): < 0.3 per 100 mRNA
relative level in the 77S monosomal translating complex, mRNA set at 100 (elongation) (eIF4E-Flag [4]): 12 per 100 mRNA
relative level in the 77S monosomal translating complex, mRNA set at 100 (initiation) (eIF4E-Flag [4]): 15 per 100 mRNA

Reference: PMC4783044, “Stoichiometry and Change of the mRNA Closed-Loop Factors as Translating Ribosomes Transit from Initiation to Elongation” (PLoS ONE, 2016)
